Data taken from patent US9724388B2, “FGF-18 compound dosing regimen” (MERCK PATENT GMBH, priority 2014, dated 2017).
Entries after “also recorded” stand apart in the source; their conditions may differ.

How the values were obtained:
[1] = tested on: ACLT+tMx model of instability-induced OA; test: ACLT+tMx rat OA model, neo-formation of cartilaginous tissue (Safranin-O quantification); assay type: in vivo; conditions: for dose at which dose-dependent neo-formation of cartilaginous tissue became significant, medial tibia: FIG. 2b
Protocol: The anterior cruciate ligament transection with resection of the medial meniscus (ACLT+tMx) model of instability-induced OA was performed in male Lewis rats 10-15 weeks of age. Briefly, under anesthesia with isoflurane, the joint capsule of the right knee of each rat was opened, the anterior cruciate and meniscus fixating ligaments were sharply transected, the meniscus was removed and the capsule, muscles and skin closed by sutures. Animals were randomly allocated into 10 groups of n=10 each. The following dosages were investigated: 0, 0.3, 1, 3 and 10 μg per intra-articular injection. Groups 1-5 received one cycle of three single injections at weekly intervals, group 6-10 three single injections at monthly intervals. Intra-articular treatment was started three weeks post-surgery. At this time pathophysiological changes are already mainifest, e.g., cartilage matrix loss. Animals were euthanized 17 weeks after surgery and joints were investigated.

[2] = tested on: Primary articular porcine chondrocytes; test: Porcine chondrocyte proliferation with or without IL1α challenge; assay type: cell-based, pig; conditions: 100 ng/mL, 8 days
Protocol: Porcine chondrocytes were isolated from the cartilage of a femoral head of a pig hip (pigs were approximately one year old). After dissection of the joints, the cartilage was harvested and digested 45 minutes with collagenase 0.25% (1/10 dilution of collagenase NBG4 2.5% in HAM's F12) at room temperature. The loosened cells were discarded and the cartilage further digested overnight with collagenase 0.1% (1/25 dilution of collagenase NBG4 2.5% in HAM's F12) at 37° C. to extract the chondrocytes. For this study, the chondrocytes were cultured in monolayer.
Primary articular porcine chondrocytes were stimulated or not with 10 ng/mL IL1α and were either treated immediately or 6 hours later with anakinra 100 ng/mL and/or trFGF-18 100 ng/mL. Each condition was performed in 4 or 6-plicates. As a control, cells were also cultured with anakinra alone, trFGF-18 alone or in the absence of any treatment (medium).
Pre-culture: After cell isolation porcine chondrocytes were inoculated at 20,000 cells/cm^2 and cultivated for one week in complete HAM's F12. Cells were then harvested with accutase, counted and used as described below.
For cells treated directly with anakinra: Chondrocytes were inoculated in a 24-well plate at 15,000 cells/well in 0.5 mL of complete HAM's F12. Then 0.25 mL of trFGF-18 400 ng/mL and/or 0.25 mL of anakinra 400 ng/mL were added to the cells. In the challenged samples, 10 μL of IL1α at 1,000 ng/mL were also added to the cells. trFGF-18, anakinra and IL1α were all diluted in complete HAM's F12. The final volume in the culture well was adjusted at 1 mL with complete HAM's F12. Final concentrations were 10 ng/mL IL1α, 100 ng/mL trFGF-18 and 100 ng/mL anakinra and the total culture time was eight days. A complete medium change was performed after four days. N=4.
For cells treated with anakinra and trFGF-18 6 hours after the IL1α challenge: Chondrocytes were inoculated in a 24-well plate at 15,000 cells/well in 1 mL of complete HAM's F12 containing or not containing IL1α 10 ng/mL. After 6 hours the medium was removed and replaced with 0.25 mL trFGF-18 400 ng/mL and/or 0.25 mL of anakinra 400 ng/mL. In the challenged samples, 0.25 mL of IL1α at 40 ng/mL was also added to the cells. trFGF-18, anakinra and IL1α were all diluted in complete HAM's F12. The final volume in the culture well was adjusted at 1 mL with complete HAM's F12. Final concentrations were 10 ng/mL IL1α, 100 ng/mL trFGF-18 and 100 ng/mL anakinra and the total culture time was eight days. A complete medium change was performed after four days. N=6.
After eight days of culture, cells were harvested with accutase and resulting cell suspensions were analyzed for cell concentration and cell viability with a ViCell™ cell analyzer (from Beckman Coulter). Statistical analysis consisted in a 1-way ANOVA followed by a Dunnett post-hoc analysis.

[3] = tested on: rat model of OA (ACLT with tMx); test: ACLT+tMx rat OA model, intracycle dosing frequencies of sprifermin; assay type: in vivo
Protocol: The goal of this study was to evaluate the effect of different intracycle dosing frequencies of the same total dosage (3×1 μg) of sprifermin on cartilage volume in a rat model of OA. The anterior cruciate ligament transection (ACLT) with resection of the medial meniscus (tMx) was performed as disclosed in example 1. Joints from male Lister Hooded Rats (200-260 g, Charles River) were used in this study. Animals were euthanized 18 weeks post-surgery.
The changes in the joint are related to clinical assessments in OA (cartilage loss, osteophytes, subchondral sclerosis). One μg sprifermin in saline was injected three times either weekly, every 2nd, every 3rd, every 4th or every 5th week and compared to appropriate vehicle groups. Body weight, joint diameters and clinical health scores were investigated weekly.

B1: trFGF-18: recombinant truncated form of human FGF-18 (170 amino acids, SEQ ID NO: 2), produced in E. coli (protein)
chain: MEENVDFRIHVENQTRARDDVSRKQLRLYQLYSRTSGKHIQVLGRRISARGEDGDKYAQLLVETDTFGSQVRIKGKETEFYLCMNRKGKLVGKPDGTSKECVFIEKVLENNYTALMSAKYSGWYVGFTKKGRPRKGPKTRENQQDVHFMKRYPKGQPELQKPFKYTTVTK
modifications: Recombinant truncated FGF-18(trFGF-18)
dose at which dose-dependent neo-formation of cartilaginous tissue became significant, lateral tibia ([1]; independently of the injection regimen (3 i.a. injections weekly or monthly), FIG. 2a): 1 μg/joint
dose at which dose-dependent neo-formation of cartilaginous tissue became significant, medial tibia ([1]; one monthly regimen): 0.3 μg/joint
dose at which dose-dependent neo-formation of cartilaginous tissue became significant, medial tibia ([1]; one weekly regimen): 1 μg/joint
stimulation of proliferation vs control (medium, IL1α 10 ng/mL) ([2]; first experiment (direct treatment)): 2.38 fold
stimulation of proliferation vs control (medium, IL1α 10 ng/mL) ([2]; second experiment (6-hour delay)): 2.44 fold
increase in cell numbers vs control (medium, no IL1α) ([2]; first experiment (direct treatment, FIG. 6A)): 11.25 fold
increase in cell numbers vs control (medium, no IL1α) ([2]; second experiment (6-hour delay, FIG. 6B)): 7.75 fold
cartilage volume on medial tibia (FIG. 9) ([3]; 1 μg/joint once every 3rd week, three injections, listed as rhFGF-18): pharmacologically meaningful and statistically significant difference over saline; also recorded: most beneficial structural outcome
body weight gain ([3]; 3 x 1 μg intra-articular injections): no influence
cartilage denudation (stereology) ([3]; 3 x 1 μg/joint): prevented more or less complete cartilage denudation
cartilage volume ([3]; all groups treated with rhFGF-18): higher cartilage volume values compared to placebo
AUC of joint diameters ([3]; injected every fifth week): the same as with saline injections
joint diameters, differences between regimens ([3]; injections every 2nd, 3rd or 4th week): No significant differences
joint diameters (AUC, FIG. 8) ([3]; injections in week 3, 4 and 5 vs injections in week 3, 8 and 13): significantly higher
